Test results from article PMC9582194, “The effect of helix-inducing constraints and downsizing upon a transcription block survival-derived functional cJun antagonist” (Cell Reports. Physical Science, 2022).
Positions of bridges follow the written chain, without caps; N, C: chain ends.

B1: HingeW (HW1) (peptide)
peptide: MASLEQRAEELARENEELEKEAEELVVEEDVLEEEIEQLEERNYALRKEIEDLQKQLEKLGAP
notes: TBS-selected 63-mer (acidic extension plus leucine zipper) with MAS N-cap and GAP C-cap; not shown: 6xHis, C-terminal, kept
B2: HW8 (peptide)
peptide: Ac-EAEELVVEEDVLEEEIEQLEERNYALRKEIEDLQKQ-NH2
notes: truncation NΔ20 CΔ7 of HW1; source: synthetic peptide (Fmoc SPPS, RP-HPLC purified)
B3: HW29 (peptide)
peptide: Ac-EAEELVVEEDVLEEEIEQLEERNYALRKEIKDLQDQ-NH2
modifications: lactam 31-35
SMILES: CC[C@H](C)[C@H](NC(=O)[C@H](CCC(=O)O)NC(=O)[C@H](CCCCN)NC(=O)[C@H](CCCNC(=N)N)NC(=O)[C@H](CC(C)C)NC(=O)[C@H](C)NC(=O)[C@H](Cc1ccc(O)cc1)NC(=O)[C@H](CC(N)=O)NC(=O)[C@H](CCCNC(=N)N)NC(=O)[C@H](CCC(=O)O)NC(=O)[C@H](CCC(=O)O)NC(=O)[C@H](CC(C)C)NC(=O)[C@H](CCC(N)=O)NC(=O)[C@H](CCC(=O)O)NC(=O)[C@@H](NC(=O)[C@H](CCC(=O)O)NC(=O)[C@H](CCC(=O)O)NC(=O)[C@H](CCC(=O)O)NC(=O)[C@H](CC(C)C)NC(=O)[C@@H](NC(=O)[C@H](CC(=O)O)NC(=O)[C@H](CCC(=O)O)NC(=O)[C@H](CCC(=O)O)NC(=O)[C@@H](NC(=O)[C@@H](NC(=O)[C@H](CC(C)C)NC(=O)[C@H](CCC(=O)O)NC(=O)[C@H](CCC(=O)O)NC(=O)[C@H](C)NC(=O)[C@H](CCC(=O)O)NC(C)=O)C(C)C)C(C)C)C(C)C)[C@@H](C)CC)C(=O)N[C@H]1CCCCNC(=O)C[C@@H](C(=O)N[C@@H](CCC(N)=O)C(N)=O)NC(=O)[C@H](CCC(N)=O)NC(=O)[C@H](CC(C)C)NC(=O)[C@H](CC(=O)O)NC1=O
notes: cyclized form of the pair HW28/HW29; NΔ20 CΔ7; source: synthetic peptide (Fmoc SPPS, on-resin lactamization, RP-HPLC purified)
B4: HW30 (peptide)
peptide: Ac-EAEELVVEEKVLEDEIEQLEERNYALRKEIKDLQDQ-NH2
modifications: lactam 10-14, 31-35
SMILES: CC[C@H](C)[C@H](NC(=O)[C@H](CCC(=O)O)NC(=O)[C@H](CCCCN)NC(=O)[C@H](CCCNC(=N)N)NC(=O)[C@H](CC(C)C)NC(=O)[C@H](C)NC(=O)[C@H](Cc1ccc(O)cc1)NC(=O)[C@H](CC(N)=O)NC(=O)[C@H](CCCNC(=N)N)NC(=O)[C@H](CCC(=O)O)NC(=O)[C@H](CCC(=O)O)NC(=O)[C@H](CC(C)C)NC(=O)[C@H](CCC(N)=O)NC(=O)[C@H](CCC(=O)O)NC(=O)[C@@H](NC(=O)[C@H](CCC(=O)O)NC(=O)[C@@H]1CC(=O)NCCCC[C@H](NC(=O)[C@H](CCC(=O)O)NC(=O)[C@H](CCC(=O)O)NC(=O)[C@@H](NC(=O)[C@@H](NC(=O)[C@H](CC(C)C)NC(=O)[C@H](CCC(=O)O)NC(=O)[C@H](CCC(=O)O)NC(=O)[C@H](C)NC(=O)[C@H](CCC(=O)O)NC(C)=O)C(C)C)C(C)C)C(=O)N[C@@H](C(C)C)C(=O)N[C@@H](CC(C)C)C(=O)N[C@@H](CCC(=O)O)C(=O)N1)[C@@H](C)CC)C(=O)N[C@H]1CCCCNC(=O)C[C@@H](C(=O)N[C@@H](CCC(N)=O)C(N)=O)NC(=O)[C@H](CCC(N)=O)NC(=O)[C@H](CC(C)C)NC(=O)[C@H](CC(=O)O)NC1=O
notes: double lactamized peptide; NΔ20 CΔ7; also called double lactam peptide HW30; source: synthetic peptide (Fmoc SPPS, on-resin lactamization, RP-HPLC purified)
B5: HW23 (peptide)
peptide: Ac-EAEELVVEEKVLEDEIEQLEERNYALRKEIEDLQKQ-NH2
modifications: lactam 10-14
SMILES: CC[C@H](C)[C@H](NC(=O)[C@H](CCC(=O)O)NC(=O)[C@H](CCCCN)NC(=O)[C@H](CCCNC(=N)N)NC(=O)[C@H](CC(C)C)NC(=O)[C@H](C)NC(=O)[C@H](Cc1ccc(O)cc1)NC(=O)[C@H](CC(N)=O)NC(=O)[C@H](CCCNC(=N)N)NC(=O)[C@H](CCC(=O)O)NC(=O)[C@H](CCC(=O)O)NC(=O)[C@H](CC(C)C)NC(=O)[C@H](CCC(N)=O)NC(=O)[C@H](CCC(=O)O)NC(=O)[C@@H](NC(=O)[C@H](CCC(=O)O)NC(=O)[C@@H]1CC(=O)NCCCC[C@H](NC(=O)[C@H](CCC(=O)O)NC(=O)[C@H](CCC(=O)O)NC(=O)[C@@H](NC(=O)[C@@H](NC(=O)[C@H](CC(C)C)NC(=O)[C@H](CCC(=O)O)NC(=O)[C@H](CCC(=O)O)NC(=O)[C@H](C)NC(=O)[C@H](CCC(=O)O)NC(C)=O)C(C)C)C(C)C)C(=O)N[C@@H](C(C)C)C(=O)N[C@@H](CC(C)C)C(=O)N[C@@H](CCC(=O)O)C(=O)N1)[C@@H](C)CC)C(=O)N[C@@H](CCC(=O)O)C(=O)N[C@@H](CC(=O)O)C(=O)N[C@@H](CC(C)C)C(=O)N[C@@H](CCC(N)=O)C(=O)N[C@@H](CCCCN)C(=O)N[C@@H](CCC(N)=O)C(N)=O
notes: cyclized form of the pair HW22/HW23; NΔ20 CΔ7; source: synthetic peptide (Fmoc SPPS, on-resin lactamization, RP-HPLC purified)
B6: HW4 (peptide)
peptide: Ac-EAEELVVEEDVLEEEIEQLEERNYALRKEIEDLQKQLEKL-NH2
notes: truncation NΔ20 CΔ3 of HW1; source: synthetic peptide (Fmoc SPPS, RP-HPLC purified)

Key:
[1] = Peptide fraction helicity by CD at 222 nm, peptide-only samples; assay type: physicochemical; conditions: CD signal at 222 nm of peptide-only samples; pH 7.4 phosphate/KF/TCEP buffer; duplicate experiments
Method: (§1) The precise nature of the interaction between the cJun DBD and the rationally designed acidic domain of HW1 is unknown. HW1 was, therefore, iteratively truncated from the N terminus (HW2–6) to investigate the effect on cJun binding and cJun/TRE DNA antagonism (Table 1). Peptide fraction helicity (fH) was determined by quantifying the circular dichroism (CD) signal at 222 nm of peptide-only samples (Figure S1). Thermal denaturation experiments were then used to determine the melting temperature (Tm) of peptide-cJun heterodimers, which serves as an approximate measure of target engagement. CD was also used to investigate the functional activity of peptides in antagonizing the cJun/TRE DNA interaction. […] This provides a clear and direct measurement of the proportion of DNA bound to cJun. As antagonist peptide concentration was increased, the peak shifted to overlay with that of free TRE-DNA (Figure S4). For each peptide, the data were fit to a Hill equation to determine half-maximal inhibitory concentration (IC50) values, specific to these assay conditions, providing a clear comparative measure of antagonism. The same 60 amino acid cJun construct, encompassing the entire bZIP domain, was used for all experiments regardless of antagonist peptide length.

[2] = target: T1, cJun (Homo sapiens, UniProt P05412); experiment: Isothermal titration calorimetry (ITC) with cJun; assay type: binding; conditions: 25 °C, pH 7.4, one-site model, average of two experiments ± one SD
T1 construct: The same 60 amino acid cJun construct, encompassing the entire bZIP domain, was used for all experiments
From the text: A selection of peptides from this work were investigated by isothermal titration calorimetry (ITC) to quantify the thermodynamic parameters of their interaction with target cJun (Figure 4 and S6; Table 2). The determined equilibrium binding constant (KD) values follow from the CD data above and can be rationalized in terms of the truncation or lactamization they represent. […] All interactions investigated were dominated by the enthalpic component, with a smaller unfavorable entropic contribution, other than for HW8/cJun, which is the weakest interaction. The unfavorable entropic component was largest for the HW30/cJun interaction and smallest for HW23/cJun. This indicates the introduction of lactams produces a more unfavorable entropic component, perhaps a surprising result as helix-inducing lactamization is typically considered to increase affinity through entropic pre-organization. However, the larger increase in the favorable enthalpic component produces an increase in binding affinity due to lactamization. This is likely to be caused by a combination of enhanced intermolecular contacts and ordering that are opposed by unfavorable desolvation effects.
Two-μL injections of antagonist peptide at 25–200 μM were injected into the cell containing cJun at 2.5–20 μM at 25°C. Microcal Control and Analysis software were used to record and analyze the heat change upon addition and fit the data to a one-site binding model to extract the enthalpy change of binding (ΔH) and the KD, from which the free energy change of binding (ΔG) and the entropy change of binding (ΔS) were calculated.[40] Control experiments involved the injection of the antagonist peptide sample into the cell containing ITC buffer alone to determine the heat of dilution, which was subtracted. Thermodynamic parameters are presented as an average of two independent experiments with errors given as one SD.

[3] = target: T1, cJun; experiment: CD thermal denaturation of peptide-cJun heterodimers (Tm); assay type: binding; conditions: CD ellipticity at 222 nm, 1-90 °C; peptide (5 μM)/cJun (5 μM); 20 mM potassium phosphate, 150 mM potassium fluoride, 2 mM TCEP pH 7.4; two-state fit; duplicate experiments, ± one SD
Method: as §1
Figure 2 Iterative N-terminal truncation of HingeW reduces cJun binding and antagonism (A) Thermal denaturation profiles for iteratively truncated peptide (5 μM)/cJun (5 μM) heterodimer samples. (B) CD antagonism data produced by monitoring the shift in a DNA specific peak to provide a direct readout of cJun-DNA binding. Peptides are added at the indicated concentrations to a pre-incubated mixture of cJun (20 μM) and TRE DNA (5 μM). Data points were averaged from triplicate experiments, and error bars indicate one SD. The data were fitted to a Hill equation to determine IC50 values. Some higher peptide concentration data points for HW6 and HW9 are not shown in this plot for clarity.

[4] = target: T2, cJun (60 amino acid construct encompassing the entire bZIP domain) (UniProt P05412 252-315); experiment: ITC; antagonist peptide at 25–200 μM injected into cJun at 2.5–20 μM in the cell, 25°C; 20 mM potassium phosphate, 150 mM potassium fluoride, 2 mM TCEP, pH 7.4; one-site binding model; two independent experiments; conditions: both partners purified
[5] = target: T2, cJun (60 amino acid construct …); experiment: CD thermal denaturation; peptide (5 μM) with cJun (5 μM); ellipticity at 222 nm, 1°C to 90°C; 20 mM potassium phosphate, 150 mM potassium fluoride, 2 mM TCEP, pH 7.4; two-state fit gives the Tm of the peptide-cJun heterodimer; duplicate experiments; conditions: both partners purified
[6] = target: T2, cJun (60 amino acid construct …); experiment: cell-based or functional assay

T2 sequence (P05412 252-315): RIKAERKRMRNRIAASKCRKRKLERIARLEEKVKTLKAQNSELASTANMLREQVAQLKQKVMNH
T1 sequence (P05412 252-315 limits assumed): as the sequence (P05412 252-315) above

Molecule	fH, peptide fraction helicity [1] [%]	ΔH [2] [kcal/mol]	Stoichiometry, n ([2]; peptide 25-200 μM injected into cJun 2.5-20 μM)	Tm of peptide-cJun heterodimer [3] [°C]	Kd [4] [µM]	dH [4] [kcal/mol]	stoichiometry N [4]	Tm of the peptide-cJun heterodimer [5] [°C]	IC50 CD: peptide added to pre-incubated cJun (20 μM) and TRE DNA (5 μM); blocks cJun/TRE DNA binding [6] [µM]
Ac-EAEELVVEEDVLEEEIEQLEERNYALRKEIEDLQKQLEKL-NH2 [HW4]	45.5	-45.399 ± 1.93	0.91 ± 0.04	64.1 ± 1.5					
Ac-EAEELVVEEDVLEEEIEQLEERNYALRKEIEDL-NH2 [HW9]	32.8			44.8 ± 1.2					
Ac-LVVEEDVLEEEIEQLEERNYALRKEIEDLQKQLEDL-NH2 [HW12]	43.0			62.1 ± 1.4					
Ac-EAEELVVEEKVLEDEIEQLEERNYALRKEIEDLQKQ-NH2 [HW22]	37.2			54.9 ± 1.2					
B1					0.00021	-31	0.93	71.2	13.4
B2					1.1	-5.99	0.95	57.1	82.1
B3					0.0866	-23.6	0.97	65	52.7
B4					0.00969	-30.5	1.05	63.2	44.9
B5					0.0696	-14.1	1.2	64	74.9
B6					0.0911	-45.4	0.91	64.1	45.4
